Assay results taken from patent US20040132642A1, “Methods of inhibiting metastasis or growth of a tumor cell” (Government of the U.S.A., represented by the Secretary, …, priority 2002, published 2004).

What was measured:
[1] = target: human CXC Chemokine Receptor-4 (CXCR4) (human) (UniProt P61073); test: cell-based or functional assay
[2] = target: LMEC-derived CXCL12 (endogenous CXCL12 of human lung microvascular endothelial cells) (human) (UniProt P48061); test: cell-based or functional assay
Chain of LMEC-derived CXCL12 (endogenous CXCL12 of human lung microvascular endothelial cells) (human) (P48061 22-93 limits assumed): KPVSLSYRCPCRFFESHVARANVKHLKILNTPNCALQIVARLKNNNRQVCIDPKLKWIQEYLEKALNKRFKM

Chain of recombinant CXCL12 (SDF-1) (ligand) (P48061 22-93): as the sequence (P48061 22-93 limits assumed) above
Chain of human CXC Chemokine Receptor-4 (CXCR4) (human) (P61073 whole entry): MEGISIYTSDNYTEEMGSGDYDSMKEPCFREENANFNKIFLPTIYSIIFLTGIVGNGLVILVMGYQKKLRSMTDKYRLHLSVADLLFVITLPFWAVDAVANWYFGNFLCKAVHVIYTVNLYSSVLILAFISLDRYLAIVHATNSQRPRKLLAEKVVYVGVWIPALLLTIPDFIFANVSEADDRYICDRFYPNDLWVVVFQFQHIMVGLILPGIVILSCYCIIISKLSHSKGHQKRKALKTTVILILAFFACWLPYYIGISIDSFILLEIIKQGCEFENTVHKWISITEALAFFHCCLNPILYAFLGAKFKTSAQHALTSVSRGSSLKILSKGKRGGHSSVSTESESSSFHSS
Chain of CCL19 (control chemokine) (ligand) (Q99731 22-98): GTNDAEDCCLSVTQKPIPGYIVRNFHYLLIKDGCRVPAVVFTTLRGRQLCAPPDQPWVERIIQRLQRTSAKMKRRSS

Substance: CCL19 (control chemokine) (ligand)
- adhesion of CXCR4-B16 cells to chemokine-treated DMEC (adherent cells, parallel plate flow chamber) [1]: 6.8
- arrest of CXCR4-B16 cells on plates co-coated with VCAM-1/Ig and CCL19 at 1.5 dynes/cm^2 (Mean adherent cells/field) [1]: 17.2

Substance: LMEC-derived CXCL12 (endogenous CXCL12 of human lung microvascular endothelial cells) (from UniProt P48061 22-93) (ligand)
- arrest of CXCR4-B16 against pLNCX2-B16 cells on LMEC, no exogenous CXCL12 [1]: 3 times
- arrest of CXCR4-B16 cells on TNFα-treated LMEC under flow, no exogenous CXCL12 (Mean adherent cells/field) [1]: 102

Substance: Mouse anti-human CXCR4 mAb (clone 44716.111, R&D Systems) (antibody)
- arrest on TNF-α-stimulated LMEC of CXCR4-B16 cells pretreated with anti-CXCR4 mAb (10 µg/ml) (Mean adherent cells/field) [1]: 7.5

Substance: anti-human CXCL12 mAb (clone 77014.111, R&D Systems) (antibody)
- arrest of CXCR4-B16 cells on LMEC pretreated with anti-CXCL12 mAb (100 µg/ml) (Mean adherent cells/field) [2]: 41.2

Substance: recombinant CXCL12 (SDF-1) (ligand)
- adhesion of CXCR4-B16 cells to CXCL12-treated DMEC (adherent cells, parallel plate flow chamber) [1]: 85.2
- adhesion of CXCR4-B16 cells to CXCL12-treated LMEC (adherent cells) [1]: 321
- arrest of CXCR4-B16 cells on TNFα-treated LMEC under flow, with exogenous CXCL12 (Mean adherent cells/field) [1]: 170
- arrest of CXCR4-B16 cells on plates co-coated with VCAM-1/Ig and CXCL12 at 1.5 dynes/cm^2 (Mean adherent cells/field) [1]: 87.2
- growth of CXCR4-B16 cells in low serum, cell count at 24 h [1]: 19.3
- growth of CXCR4-B16 cells in low serum, cell count at 48 h [1]: 35.3
